Reference: article PMC6641176 (ACS Omega, 2017)
Numbering of substitutions follows the chain as printed. In names and notes the source's numbering stands.

B1: AqpZ-C20S (Escherichia coli aquaporin Z, C20S mutant) (natural protein)
chain: MFRKLAAECFGTFWLVFGGSGSAVLAAGFPELGIGFAGVALAFGLTVLTMAFAVGHISGGHFNPAVTIGLWAGGRFPAKEVVGYVIAQVVGGIVAAALLYLIASGKTGFDAAASGFASNGYGEHSPGGYSMLSALVVELVLSAGFLLVIHGATDKFAPAGFAPIAIGLALTLIHLISIPVTNTSVNPARSTAVAIFQGGWALEQLWFFWVVPIVGGIIGGLIYRTLLEKRD
B2: AqpZ-G144F (in the AqpZ-C20S background) (natural protein, Escherichia coli)
chain: B1 chain with G144F
B3: AqpZ-I176G (in the AqpZ-C20S background) (natural protein, Escherichia coli)
chain: B1 chain with I176G

Experiments:
[1] = target: the molecule itself; assay: SDS-PAGE and western blot
SEC = target: the molecule itself; assay: SEC

Protein | stoichiometry N [1] | stoichiometry N (SEC)
B1 | 4 | 
B2 |  | 4
B3 |  | 4
